Broadly, the Kd is a measure of binding affinity in units of concentration. The low end stands for a tighter complex, the high end for a looser complex. For orientation: koff means the first-order rate constant of dissociation. By kon is commonly meant a measure of how fast the partners come together. Low values mean slow association, high ones fast association.

Test [1] concerns the target C. albicans cell surface-exposed enolase (C. albicans) (UniProt P30575). The test can be described thus: SPR; BIACORE 3000; enolase amine-coupled to a CM5 chip (about 300 RU); human protein as analyte (40-750 nM or 75-750 nM), 30 µL/min, 25 °C, 10 mM HEPES, 150 mM NaCl, 0.005% P20, pH 7.4; 1:1 Langmuir global fit with baseline drift and local Rmax; regeneration 1 M NaCl. For orientation: Surface plasmon resonance follows binding to a sensor surface in real time, without labels.

In test [2] the target is C. albicans cytosolic enolase (C. albicans) (UniProt P30575). The description is as above.
The target in test [3] is C. tropicalis cytosolic enolase (C. tropicalis) (UniProt C5MD83). The description is as above.
For test [4], the target named is C. albicans cytosolic enolase (C. albicans) (UniProt P30575). The test is described as follows: ELISA; competition in a microplate: VTR immobilised (3 pmol per well); 40 nM biotinylated C. albicans enolase and 400 nM unlabeled HPG added together in PBS, 1.5 h, 37 °C; SA-HRP/TMB; also with 5 mM Mg2+ (no effect). (In an ELISA, binding on a coated surface is turned into a signal by an enzyme label.)

Test [5] concerns the target human vitronectin (human) (UniProt P04004). The test can be described thus: ELISA; microplate ligand-binding assay, semi-quantitative: 3 pmol human protein immobilised per MaxiSorp well, blocked with 3% BSA; biotin-labeled enolase 10-500 nM in PBS, 1.5 h, 37 °C; detection with SA-HRP/TMB; BSA-only wells subtracted.
Test [6] concerns the target human plasminogen (human). The test is described as above.
For test [7], the target named is human fibronectin (human). The description is as above.

Sequence of human vitronectin (human) (P04004 20-478): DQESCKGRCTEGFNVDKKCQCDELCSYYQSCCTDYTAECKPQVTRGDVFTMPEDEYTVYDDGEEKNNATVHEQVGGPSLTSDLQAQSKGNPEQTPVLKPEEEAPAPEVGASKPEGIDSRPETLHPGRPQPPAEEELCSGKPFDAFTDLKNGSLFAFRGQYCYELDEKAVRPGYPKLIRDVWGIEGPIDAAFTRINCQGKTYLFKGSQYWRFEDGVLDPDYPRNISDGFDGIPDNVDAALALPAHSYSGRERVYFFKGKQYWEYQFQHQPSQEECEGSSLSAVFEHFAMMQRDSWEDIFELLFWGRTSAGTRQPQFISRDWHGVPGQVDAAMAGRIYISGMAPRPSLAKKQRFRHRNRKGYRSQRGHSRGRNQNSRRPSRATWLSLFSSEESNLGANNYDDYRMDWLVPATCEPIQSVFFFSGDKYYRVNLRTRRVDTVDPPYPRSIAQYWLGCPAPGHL

Regarding human fibronectin (natural protein), the Kd in test [1] was determined as 36.8 nM; in test [2], 42.8 nM; in test [3], 51.8 nM. In addition, the off-rate (koff) in test [1] came to 0.00222 s⁻¹; in test [2], 0.0277 s⁻¹; in test [3], 0.00284 s⁻¹. The figures for the kon in test [1], in test [2] and in test [3] were 60300 M⁻¹ s⁻¹, 647000 M⁻¹ s⁻¹ and 54800 M⁻¹ s⁻¹, respectively.

In the case of human plasminogen (natural protein), the reduction of the binding of biotinylated enolase to immobilized VTR in test [4] is 50%. In test [1], this substance yielded a dissociation constant (Kd) of 120 nM, a koff of 0.0626 s⁻¹ and a kon of 522000 M⁻¹ s⁻¹. In test [2], this substance gave a Kd of 257 nM, a koff of 0.0693 s⁻¹ and a kon of 270000 M⁻¹ s⁻¹. For the same substance, in test [3], the Kd was determined as 253 nM, the koff came out at 0.0146 s⁻¹ and the kon came out at 57700 M⁻¹ s⁻¹.

For the substance “recombinant C. albicans enolase with the 235-255 sequence of S. cerevisiae enolase (R-Enosc) (from UniProt P30575 1-440) (enzyme)”, the reduction in binding compared to R-Eno in test [5], in test [6] and in test [7] was over 50% in each case.
